{"source": "patent US20040214995A1", "about": "(published 2004)", "data": [{"target": "T1, HLA-A2.1 (heavy chain with human beta 2-microglobulin) (human)", "units": {"IC50": "nM"}, "values": [{"binder": "LLDGTATLRL", "note": "[gp100 peptide G10-4 (LLDGTATLRL)]", "IC50": 483, "Ratio to Standard": 0.01}, {"binder": "VLYRYGSFSV", "note": "[gp100 peptide G10-5 (VLYRYGSFSV)]", "IC50": 13, "Ratio to Standard": 0.38}]}, {"target": "T1, HLA-A2.1 (heavy chain with human beta …)", "remark": "another data set of the same source", "units": {"IC50": "nM"}, "values": [{"binder": "ATWGQYWQV", "note": "[G9-154-1A]", "IC50": 5.2}, {"binder": "ALWGQYWQV", "note": "[G9-154-1A2L]", "IC50": 2.3}, {"binder": "FTWGQYWQV", "note": "[G9-154-1F]", "IC50": 1.6}, {"binder": "FLWGQYWQV", "note": "[G9-154-1F2L]", "IC50": 2.6}, {"binder": "LTWGQYWQV", "note": "[G9-154-1L]", "IC50": 3.4}, {"binder": "LLWGQYWQV", "note": "[G9-154-1L2L]", "IC50": 1.6}, {"binder": "WTWGQYWQV", "note": "[G9-154-1W]", "IC50": 60}, {"binder": "WLWGQYWQV", "note": "[G9-154-1W2L]", "IC50": 2.8}, {"binder": "YTWGQYWQV", "note": "[G9-154-1Y]", "IC50": 2.5}, {"binder": "YLWGQYWQV", "note": "[G9-154-1Y2L]", "IC50": 1.7}, {"binder": "KIWGQYWQV", "note": "[G9-154-2I]", "IC50": 3}, {"binder": "KLWGQYWQV", "note": "[G9-154-2L]", "IC50": 2}, {"binder": "KMWGQYWQV", "note": "[G9-154-2M]", "IC50": 6.5}, {"binder": "KTFGQYWQV", "note": "[G9-154-3F]", "IC50": 21}, {"binder": "KTYGQYWQV", "note": "[G9-154-3Y]", "IC50": 30}]}]}
